Molecular target: T1, Beta-Amyloid Protein (1-28) (Homo sapiens, UniProt P05067)
T1 construct: residues 1-28 of BAP or residues 597-624 of BAPP; purchased Bachem Inc., Torrance, Calif; host or cells: synthetic peptide
Assay: Competitive inhibition of 125I-labeled HSPG binding to BAP (1-28) affinity column
Details: absence of unlabeled competing ligand, n=5
Description: ^125I-labeled HSPGs in the presence of increasing concentrations of unlabeled GAGs, or large low density HSPG (from EHS sarcoma) were applied to an Affi-gel 10 column containing BAP (residues 1-28). After nonbound PGs were eluted from the column using TBS+0.1% TX-100, bound PGs were eluted with a step gradient using 15 ml of 1M MgCl2 in TBS+0.1% TX-100, followed by 15 ml of 4M MgCl2 in TBS+0.1% TX-100, and then 10 ml of 8M urea buffer containing 3M NaCl. […] Bars indicate standard error of the mean.
In order to test the specificity of HSPG binding to BAP (1-28), competitive inhibition experiments were also performed. 125-I labeled HSPGs (100,000-200,000 dpm) were mixed with (a) HSPG from EHS sarcoma (Mr approximately 700,000) (Kato et al., 1988) (gift of Dr. Koji Kimata, Aichi, Japan), (b) heparin from porcine intestinal mucosa (Mr˜11,000; Sigma, St. Louis, Mo.), (c) chondroitin-6-sulfate from shark cartilage (Mr˜59,000; Sigma, St. Louis, Mo.), or (d) […] dextran sulfate (Mr˜110,000; Pharmacia Fine Chemicals, Uppsala, Sweden). The samples were incubated on a rotator for 2 hours at room temperature and then applied to the BAP (1-28) column. Columns were run and eluted with step gradients (1 to 4 M MgCl2) as described above.
Purified iodinated HSPGs were combined with various concentrations of unlabeled competing ligands and applied to a BAP (1-28) affinity column (FIG. 10).

T1 sequence (P05067 672-699 limits assumed): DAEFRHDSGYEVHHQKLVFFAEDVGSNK

high Mr HSPG: ˜600-800 kDa heparan sulfate proteoglycan isolated from culture media of bovine aortic endothelial cells
applied 125I-HSPG bound to the BAP column: 21.6±4.4%
